Patent US20230295638

Tests used:
[1] = biological target: constitutive Corelet construct PPID::FUSn::GFP::FTH1, where PPID=PDZ (UniProt P02794)
[2] = biological target: constitutive Corelet construct PPID::FUSn::GFP::FTH1, where PPID=PTB (UniProt P02794)

TAL1 C-terminally tagged with PDZ ligand
shikimate production [1]: The case when all four enzymes are recruited through expression with PTB/PDZ tags (+) shows enhanced shikimate production compared to when certain enzymes are removed from the cluster through expression without fusion to PTB/PDZ tag (-).

TKL1 C-terminally tagged with PTB ligand
shikimate production [2]: The case when all four enzymes are recruited through expression with PTB/PDZ tags (+) shows enhanced shikimate production compared to when certain enzymes are removed from the cluster through expression without fusion to PTB/PDZ tag (-).
